Source: patent US5558865, “HIV immunotherapeutics” (Nissin Shokuhin Kabushiki Kaisha, dated 1996)

T1: peptide of amino acids 322-336 of HIV-1MN gp120 (HIV-1 strain MN)
T1 peptide: YTTKNIIGTIRQAHC

T2: peptide of amino acids 312-326 of HIV-1MN gp120 (HIV-1 strain MN)
T2 peptide: RIHIGPGRAFYTTKN

T3: IIIB loop peptide Peptide 4 (HIV-1 strain IIIB)
T3 peptide: QRGPGRAF

T4: IIIB loop peptide Peptide 2 (HIV-1 strain IIIB)
T4 peptide: RIQRGPGR

T5: V3 loop peptide of HIV-1 isolate MN (HIV-1 isolate MN)
T5 peptide: RIHIGPGRAFYTTKN

T6: IIIB loop peptide Peptide 3 (HIV-1 strain IIIB)
T6 peptide: IQRGPGRA


Legend:
[1] = molecular target: T7, native HIV-1IIIB gp120 (HIV-1 strain IIIB, UniProt P04578); experiment: immunofluorescence on slides of IIIB-infected H9 cells
[2] = molecular target: T8, native HIV-1MN gp120 (HIV-1 strain MN, UniProt P05877)
[3] = molecular target: T9, peptide of amino acids 302-316 of HIV-1MN gp120 (HIV-1 strain MN); experiment: peptide ELISA, 4.75 ng NM-01
[4] = molecular target: T1, peptide of amino acids 322-336 of …; experiment: peptide ELISA, 4.75 ng NM-01
[5] = molecular target: T2, peptide of amino acids 312-326 of …; experiment: peptide ELISA, 4.75 ng NM-01
[6] = molecular target: T9, peptide of amino acids 302-316 of …; experiment: peptide ELISA, 19.0 ng NM-01
[7] = molecular target: T1, peptide of amino acids 322-336 of …; experiment: peptide ELISA, 19.0 ng NM-01
[8] = molecular target: T2, peptide of amino acids 312-326 of …; experiment: peptide ELISA, 19.0 ng NM-01
[9] = molecular target: recombinant HIV-1IIIB gp120 (DuPont-NEN) (HIV-1 strain IIIB, UniProt P04578); experiment: Western blot, colorimetric
[10] = molecular target: T9, peptide of amino acids 302-316 of …; experiment: peptide ELISA, 9.50 ng NM-01
[11] = molecular target: T1, peptide of amino acids 322-336 of …; experiment: peptide ELISA, 9.50 ng NM-01
[12] = molecular target: T2, peptide of amino acids 312-326 of …; experiment: peptide ELISA, 9.50 ng NM-01
[13] = molecular target: T8, native HIV-1MN gp120; experiment: ELISA, hybridoma supernatant on membranes of MN-infected and uninfected H9 cells
[14] = molecular target: T3, IIIB loop peptide Peptide 4; experiment: competition ELISA, 5 µg/ml antibody preincubated with 50 µg/ml peptide, on coated recombinant IIIB gp120
[15] = molecular target: V3 loop peptide of HIV-1 isolate NY/5 (HIV-1 isolate NY/5); experiment: peptide ELISA
[16] = molecular target: V3 loop peptide of HIV-1 isolate RF (HIV-1 isolate RF); experiment: peptide ELISA
[17] = molecular target: T9, peptide of amino acids 302-316 of …; experiment: peptide ELISA
[18] = molecular target: V3 loop peptide of HIV-1 isolate ELI (HIV-1 isolate ELI); experiment: peptide ELISA
[19] = molecular target: V3 loop peptide of HIV-1 isolate Z6 (HIV-1 isolate Z6); experiment: peptide ELISA
[20] = molecular target: V3 loop peptide of HIV-1 isolate CDC4 (HIV-1 isolate CDC4); experiment: peptide ELISA
[21] = molecular target: T1, peptide of amino acids 322-336 of …; experiment: peptide ELISA
[22] = molecular target: V3 loop peptide of HIV-1 isolate IIIB (HIV-1 isolate IIIB); experiment: peptide ELISA
[23] = molecular target: V3 loop peptide of HIV-1 isolate Z2 (HIV-1 isolate Z2); experiment: peptide ELISA
[24] = molecular target: T8, native HIV-1MN gp120; experiment: Western blot
[25] = molecular target: recombinant HIV-1MN gp120 (Agmed, Inc.) (HIV-1 strain MN, UniProt P05877); experiment: Western blot
[26] = molecular target: T7, native HIV-1IIIB gp120; experiment: Western blot, colorimetric
[27] = molecular target: T4, IIIB loop peptide Peptide 2; experiment: competition ELISA, 5 µg/ml antibody preincubated with 50 µg/ml peptide, on coated recombinant IIIB gp120
[28] = molecular target: T5, V3 loop peptide of HIV-1 isolate MN; experiment: peptide ELISA
[29] = molecular target: T6, IIIB loop peptide Peptide 3; experiment: competition ELISA, 5 µg/ml antibody preincubated with 50 µg/ml peptide, on coated recombinant IIIB gp120

| Binder | binding result [9] | binding result [14] | binding result [15] | binding result [18] | binding result [19] | binding result [20] | binding result [22] | binding result [23] | binding result [24] | binding result [25] | binding result [26] | binding result [28] | also measured |
| --- | --- | --- | --- | --- | --- | --- | --- | --- | --- | --- | --- | --- | --- |
| monoclonal antibody NM-01 (antibody, V domains shown) VH: QIQLKESGPAVIKPSQSLSLTCIVSGFSITSSSYCWHWIRQPPGKGLEWMGRICYEGSIDYSPSIKSRSTISRDTSLNRFFIQLSSVTNEDTAMYYCSRENHGTTTSMDYWGQGTSVTVSS VL: DIVLTQSPASLAVSLGQRATISCRASESVDSYGNSFMHWYQQKPGQSPKLLIYVASNLESGVPARFSGSGSRTDFTLTIDPVEADDAATYYCQQNNEDPLTFGAGTKLELKR | binds | binds | binds | no binding | no binding | binds | binds | no binding | – | – | – | – | binding result [1]: binds; RIA ratio cpm inf/cpm uninf [2]: 9.81 ratio; optical density at 650 nm [3]: 0.024 OD 650 nm; optical density at 650 nm [4]: 0.03 OD 650 nm; optical density at 650 nm [5]: 0.781 OD 650 nm; optical density at 650 nm [6]: 0.024 OD 650 nm; optical density at 650 nm [7]: 0.03 OD 650 nm; optical density at 650 nm [8]: 1.14 OD 650 nm; optical density at 650 nm [10]: 0.024 OD 650 nm; optical density at 650 nm [11]: 0.028 OD 650 nm; optical density at 650 nm [12]: 0.827 OD 650 nm; ELISA ratio, infected against uninfected cell membranes (Run 1) [13]: 5.76 ratio; binding result [16]: binds; binding result [17]: no binding (tested: 19.0 ng); binding result [21]: no binding (tested: 19.0 ng) |
| monoclonal antibody P4/D10 (antibody, V domains shown) VH: QIQLQQSGAELASPGASVTLSCKASGYTFTDHIMNWVKKRPGQGLEWIGRIFPVSGETNYNQKFMGKATFSVDRSSSTVSMVLNSLTSEDPAVYYCDLIYYDYEEDYYFDYWGQGTTLTV VL: DIVLTQSPASLAVSLGQRATISCRASESVDDYGISFMHWYQQKLGQPPKLLIYRASNLESGIPARFSGSGSGTEFTLTINPVETDDVATYYCQQSNKDPLTFGAGTKLELKR | binds | – | no binding | no binding | no binding | no binding | binds | no binding | no binding | no binding | binds | no binding | binding result [27]: binds |
| monoclonal antibody F58/H3 (antibody, V domains shown) VH: QIQLQQSGAELASPGASVTLSCKASGYTFTDHIMNWVKKRPGQGLEWIGRIFPVSGETNYNQKFMGKATFSVDRSSSTVSMVLNSLTSEDPAVYYCDLIYYDYEEDYYFDYWGQGTTLTV VL: DIVLTQSPASLAVSLGQRATISCRASESVDDYGISFMHWYQQKLGQPPKLLIYRASNLESGIPARFSGSGSGTEFTLTINPVETDDVATYYCQQSNKDPLTFGAGTKLELKR | binds | binds | no binding | no binding | no binding | no binding | binds | no binding | no binding | no binding | binds | no binding | binding result [29]: binds |
